Source: paper PMC11077437, “Scrutiny of chimeric antigen receptor activation by the extracellular domain: experience with single domain antibodies targeting multiple myeloma cells highlights the need for case-by-case optimization” (Frontiers in Immunology, 2024)
Positions count from the first letter of the chain named.

B1: VHH-6 (VHH)
VHH: DVQLVESGGGLVQAGGSLRLSCAASGRTFEDYFMAWFRQIPGKEREFVAAVGWNTGRGYYTDSVKGRFTISRDSAKNTLYLQMDSLKPEDTAVYYCNAPLQSLDRRLPGPYWGQGTQVTVSS
notes: 99mTc-labelled on the His tag for the in vivo experiment; source: E. coli WK6 periplasm, purified (IMAC, SEC); not shown: His6, C-terminal, kept
B2: VHH-29 (VHH)
VHH: DVQLVESGGGLVQPGGSLRLSCAASGFTFSSYAMSWVRQAPGKGPEWVSHINTGGGSTYYDDSVKGRFTISRDNAKNTLYLQMNSLKPEDTALYYCARGDPFDEYRYWGQGTQVTVSS
notes: as for B1
B3: VHH-53 (VHH)
VHH: B2 VHH with L11M, A33D, H50Y, P88A, D103Q, E104R, Y105P, R106K
notes: as for B1
B4: VHH-61 (VHH)
VHH: DVQLVESGGGMVQPGGSLRLSCAASGFTFSSYGMSWVRQAPGKGPEWVSYINVGGGSTYYDDSVKGRFTISRDNAKNTLYLQMNSLKPEDTALYYCARGDPYSDHPQRTWGQGTQVTVSS
notes: as for B1
B5: VHH-22 (VHH)
VHH: B2 VHH with A33D, N52T, Y59H, E104S, Y105S, Y107D
notes: source: E. coli WK6 periplasm, purified (IMAC, SEC); not shown: His6, C-terminal, kept
B6: VHH-24 (VHH)
VHH: B2 VHH with L11M, A33D, N52T, Y59H, E104S, Y105S, Y107D
notes: as for B5
B7: VHH-28 (VHH)
VHH: B2 VHH with F29L, S30D, S31D, H50Y, P88A, D103Q, E104R, Y105P, R106K
notes: as for B5
B8: VHH-51 (VHH)
VHH: B2 VHH with L11M, A33D, Q39L, H50Y, P88A, D103Q, E104R, Y105P, R106K
notes: as for B5
B9: VHH-56 (Table 1, the row between 53 and 57) (VHH)
VHH: B2 VHH with A33G, D61A, F102W, D103G, E104H, Y105D, R106P, Y107S
notes: this is the second; source: E. coli WK6 periplasm, purified (IMAC, SEC); not shown: His6, C-terminal, kept
B10: VHH-65 (VHH)
VHH: B2 VHH with L11M, P14S, A33D, H50Y, P88A, D103Q, E104R, Y105P, R106K
notes: as for B5
B11: VHH-17 (VHH)
VHH: DVQLVESGGGLVQPGDSLRLSCTASGFTFSNYPMSWVRQAPGKGPEWISHINTGGGSTYYADSVKGRFTISRDNAKNTLYLQMNSLKPEDTALYYCARGDPFKYSGSYLRGQGTQVTVSS
notes: as for B1

These binders were tested against T1, recombinant human CS1 protein (CS1-(his)C) (Homo sapiens, UniProt Q9NQ25) (assay: SPR; Biacore T200; recombinant CS1 amine-coupled on a CM5 chip; VHH 100 nM to 3.125 nM in HBS pH 7.4, 25°C; association 180 s, dissociation 300 s; fit '1:1 binding with drift and RI2'; n=1). Settings: both partners purified.
T1 construct: CS1 (SLAMF7, CD319), human, the extracellular portion; also called huCS1; SLAMF7; source: HEK293-E 253 cells, transiently transfected, purified from the supernatant (IMAC, SEC) by U Protein Express
T1 sequence (Q9NQ25 23-226): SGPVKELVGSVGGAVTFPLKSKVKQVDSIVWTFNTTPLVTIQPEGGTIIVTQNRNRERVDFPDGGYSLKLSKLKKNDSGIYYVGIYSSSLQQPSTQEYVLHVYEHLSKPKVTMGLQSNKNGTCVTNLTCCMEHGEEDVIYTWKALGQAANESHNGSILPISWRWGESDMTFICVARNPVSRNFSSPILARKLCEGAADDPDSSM

Binder	Kd [nM]	koff [s⁻¹]	kon [M⁻¹ s⁻¹]
B1	3.8	0.00079	210000
B2	1.6	0.00024	150000
B3	0.81	0.0003	370000
B4	0.33	8.1e-05	250000
B5	4	0.00048	120000
B6	4.7	0.00047	100000
B7	1.2	0.00025	210000
B8	0.6	0.00029	490000
B9	36.1	0.01	279000
B10	2.32	0.000979	423000

What follows are binders tested against T2, human CS1 on CS1pos OPM2 multiple myeloma cells (Homo sapiens, OPM2 myeloma cells, UniProt Q9NQ25) (assay: flow cytometry on cells; purified VHH at 200 nM, 1 h at 4°C, on CS1pos OPM2 cells; detected by mouse anti-His IgG1 mAb and APC anti-mouse IgG1 mAb; ΔMFI against the non-targeting control VHH R3B23 at 200 nM; n=1). Settings: one partner purified.
T2 construct: CS1 (SLAMF7, CD319), human, as expressed on OPM2 cells; also called cell-expressed CS1; huCS1; source: on CS1pos OPM2 cells (ATCC)
T2 sequence (Q9NQ25 23-335): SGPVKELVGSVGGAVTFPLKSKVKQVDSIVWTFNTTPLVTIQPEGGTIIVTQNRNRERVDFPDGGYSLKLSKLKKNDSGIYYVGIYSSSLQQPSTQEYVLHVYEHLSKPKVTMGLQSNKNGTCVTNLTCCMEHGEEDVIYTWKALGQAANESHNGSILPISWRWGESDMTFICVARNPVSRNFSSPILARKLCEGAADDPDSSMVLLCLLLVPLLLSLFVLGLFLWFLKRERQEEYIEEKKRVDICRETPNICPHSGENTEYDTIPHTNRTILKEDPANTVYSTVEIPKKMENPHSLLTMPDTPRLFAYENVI

Binder	ΔMFI [VHH] = 200 nM
B1	101
B2	29.4
B3	22.1
B4	10.3
B11	13
B5	7.29
B6	20.6
B7	6.58
B8	14.3
B9	4.72
B10	11.4

The binders below were run against T2, human CS1 on CS1pos OPM2 multiple … (assay: cell-based or functional assay). Settings: not given.

Binder	tumor uptake of the 99mTc-labelled VHH in subcutaneous CS1pos OPM2 tumors in mice, ex vivo at 90 min p.i. (n=3) [% IA/g]
B1	6.29
B2	4.75
B3	7.5
B4	6.57
B11	1.05
